According to patent US6987089:

Biological target: T1, His-CIA recombinant protein (His6-tagged mouse CIA)
T1 chain: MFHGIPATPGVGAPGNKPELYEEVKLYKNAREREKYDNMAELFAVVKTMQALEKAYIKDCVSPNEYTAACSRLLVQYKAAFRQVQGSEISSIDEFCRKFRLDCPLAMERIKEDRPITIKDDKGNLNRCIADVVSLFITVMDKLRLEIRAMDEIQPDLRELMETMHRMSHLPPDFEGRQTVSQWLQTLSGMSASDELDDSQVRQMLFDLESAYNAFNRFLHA

B1: ASK1-Flag (expressed from pcDNA3-ASK1-Flag in 293 cells, immunoprecipitated with anti-Flag) (protein)
chain: MSTEADEGITFSVPPFAPSGFCTIPEGGICRRGGAAAVGEGEEHQLPPPPPGSFWNVESAAAPGIGCPAATSSSSATRGRGSSVGGGSRRTTVAYVINEASQGQLVVAESEALQSLREACETVGATLETLHFGKLDFGETTVLDRFYNADIAVVEMSDAFRQPSLFYHLGVRESFSMANNIILYCDTNSDSLQSLKEIICQKNTMCTGNYTFVPYMITPHNKVYCCDSSFMKGLTELMQPNFELLLGPICLPLVDRFIQLLKVAQASSSQYFRESILNDIRKARNLYTGKELAAELARIRQRVDNIEVLTADIVINLLLSYRDIQDYDSIVKLVETLEKLPTFDLASHHHVKFHYAFALNRRNLPGDRAKALDIMIPMVQSEGQVASDMYCLVGRIYKDMFLDSNFTDTESRDHGASWFKKAFESEPTLQSGINYAVLLLAAGHQFESSFELRKVGVKLSSLLGKKGNLEKLQSYWEVGFFLGASVLANDHMRVIQASEKLFKLKTPAWYLKSIVETILIYKHFVKLTTEQPVAKQELVDFWMDFLVEATKTDVTVVRFPVLILEPTKIYQPSYLSINNEVEEKTISIWHVLPDDKKGIHEWNFSASSVRGVSISKFEERCCFLYVLHNSDDFQIYFCTELHCKKFFEMVNTITEEKGRSTEEGDCESDLLEYDYEYDENGDRVVLGKGTYGIVYAGRDLSNQVRIAIKEIPERDSRYSQPLHEEIALHKHLKHKNIVQYLGSFSENGFIKIFMEQVPGGSLSALLRSKWGPLKDNEQTIGFYTKQILEGLKYLHDNQIVHRDIKGDNVLINTYSGVLKISDFGTSKRLAGINPCTETFTGTLQYMAPEIIDKGPRGYGKAADIWSLGCTIIEMATGKPPFYELGEPQAAMFKVGMFKVHPEIPESMSAEAKAFILKCFEPDPDKRACANDLLVDEFLKVSSKKKKTQPKLSALSAGSNEYLRSISLPVPVLVEDTSSSSEYGSVSPDTELKVDPFSFKTRAKSCGERDVKGIRTLFLGIPDENFEDHSAPPSPEEKDSGFFMLRKDSERRATLHRILTEDQDKIVRNLMESLAQGAEEPKLKWEHITTLIASLREFVRSTDRKIIATTLSKLKLELDFDSHGISQVQVVLFGFQDAVNKVLRNHNIKPHWMFALDSIIRKAVQTAITILVPELRPHFSLASESDTADQEDLDVEDDHEEQPSNQTVRRPQAVIEDAVATSGVSTLSSTVSHDSQSAHRSLNVQLGRMKIETNRLLEELVRKEKELQALLHRAIEEKDQEIKHLKLKSQPIEIPELPVFHLNSSGTNTEDSELTDWLRVNGADEDTISRFLAEDYTLLDVLYYVTRDDLKCLRLRGGMLCTLWKAIIDFRNKQT
  phosphorylation of GST-MKK6 (K82A) by immunoprecipitated ASK1 (immunocomplex kinase assay): The presence of the HIS-CIA recombinant protein, however, lowered the kinase activity of ASK1, which had been activated by the UV irradiation, resulting in a significant decrease in the phosphorylation of GST-MKK6
